Assay results from US20230322953A1 (HARBOUR BIOMED SHANGHAI, published 2023).

T1: human BCMA (human, UniProt Q02223 1-184)
T1 construct: whole, on cells; also called hBCMA; TNFRSF17
T1 sequence (looked up): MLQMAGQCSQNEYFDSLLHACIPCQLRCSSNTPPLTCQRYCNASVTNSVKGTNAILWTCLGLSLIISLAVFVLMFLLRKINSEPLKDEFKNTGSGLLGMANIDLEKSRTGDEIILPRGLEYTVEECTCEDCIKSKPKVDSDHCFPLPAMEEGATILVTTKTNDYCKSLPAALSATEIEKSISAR


target: T1, human BCMA; assay: FACS on NCI-H929 cells
Method: This example is intended to investigate the binding activity of anti-BCMA HCAb antibodies to human and cynomolgus monkey BCMAs. […] Specifically, HEK293T/hBCMA cells and HEK293T/cyno BCMA cells were digested and resuspended in a DMEM complete medium. In addition, NCI-H929 cell suspension was collected. The density of each of the three cells was adjusted to 1×10⁶ cells/mL. […] The cells were incubated at 4° C. for 1 h away from light. Thereafter, the cells in each well were rinsed twice with 100 μL of pre-cooled PBS, and centrifuged at 500 g at 4° C. for 5 min, and then the supernatant was discarded. […] The cells in each well were rinsed twice with 100 μL of pre-cooled PBS, and centrifuged at 500 g at 4° C. for 5 min, and then the supernatant was discarded. Finally, the cells in each well were resuspended in 200 μL of pre-cooled PBS. Fluorescence signal values were read using a BD FACS CANTOII flow cytometer or an ACEA NovoCyte flow cytometer, and the data were processed and analyzed using FlowJo v10 (FlowJo, LLC) software. The data were processed and analyzed by plotting using GraphPad Prism 8 software, and binding curves of the antibodies to target cells, EC₅₀ values and other parameters were obtained through four-parameter nonlinear fitting.

Row | Binder | EC50 | Maximum MFI
1 | PR003876 (bispecific antibody, human IgG1, lambda, L234A L235A, BCMAxCD3, Fab-Fc-VH (structure 11); CD3 Fab of PR003886, BCMA VH of PR004571; IgG1 knob/hole, LALA) light: QAVVTQEPSLTVSPGGTVTLTCRSSTGAVTTSNYANWVQQKPGQAPRGLIGGTNKRAPWTPARFSGSLLGDKAALTLLGAQPEDEAEYFCALWYSNLWVFGGGTKLTVLGQPKAAPSVTLFPPSSEELQANKATLVCLISDFYPGAVTVAWKADSSPVKAGVETTTPSKQSNNKYAASSYLSLTPEQWKSHRSYSCQVTHEGSTVEKTVAPTECS heavy: not shown EVQLVETGGGLIQPGGSLRLSCAASGFTVSDSYMTWVRQAPGKGLEWVSVIFSGGKTYYSDSVKGRFTISRDNAKNTLYLQMNSLRAEDTALYYCARRNYDQTIGTDVFDIWGQGTMVTVSSASEPKSSDKTHTCPPCPAPEAAGGPSVFLFPPKPKDTLMISRTPEVTCVVVDVSHEDPEVKFNWYVDGVEVHNAKTKPREEQYNSTYRVVSVLTVLHQDWLNGKEYKCKVSNKALPAPIEKTISKAKGQPREPQVCTLPPSREEMTKNQVSLSCAVKGFYPSDIAVEWESNGQPENNYKTTPPVLDSDGSFFLVSKLTVDKSRWQQGNVFSCSVMHEALHNHYTQKSLSLSPGK | 2.3 nM | 10900
2 | PR002299 (bispecific antibody, human IgG1, lambda, L234A L235A, BCMAxCD3, Fab-Fc-VH(2) (structure 14); CD3 Fab of PR001848, two BCMA VH of PR000940, linker RT-GS_5-KL; IgG1 knob/hole, AAG) light: QAVVTQEPSLTVSPGGTVTLTCRSSTGAVTTSNYANWVQQKPGQAPRGLIGGTNKRAPWTPARFSGSLLGDKAALTLLGAQPEDEAEYFCALWYSNLWVFGGGTKLTVLGQPKAAPSVTLFPPSSEELQANKATLVCLISDFYPGAVTVAWKADSSPVKAGVETTTPSKQSNNKYAASSYLSLTPEQWKSHRSYSCQVTHEGSTVEKTVAPTECS heavy: EVQLLESGGGLVQPGGSLRLSCAASGFTFSTYAMNWVRQAPGKGLEWVSRIRSKYNNYATYYADSVKDRFTISRDDSKSTLYLQMNSLRAEDTAVYYCVRHGNFGNSYVSWFAYWGQGTLVTVSSASTKGPSVFPLAPSSKSTSGGTAALGCLVKDYFPEPVTVSWNSGALTSGVHTFPAVLQSSGLYSLSSVVTVPSSSLGTQTYICNVNHKPSNTKVDKKVEPKSCDKTHTCPPCPAPEAAGGPSVFLFPPKPKDTLMISRTPEVTCVVVDVSHEDPEVKFNWYVDGVEVHNAKTKPREEQYNSTYRVVSVLTVLHQDWLNGKEYKCKVSNKALGAPIEKTISKAKGQPREPQVYTLPPCREEMTKNQVSLWCLVKGFYPSDIAVEWESNGQPENNYKTTPPVLDSDGSFFLYSKLTVDKSRWQQGNVFSCSVMHEALHNHYTQKSLSLSPGK EVQLLESGGGLVQPGGSLRLSCAASGFTFSSYAMIWVRQAPGKGLEWVSGISESGGSTYYADSVKGRFTISRDNSKNTLYLQMNSLRAEDTAVYFCVKDLDDILTGYYKDYWGQGTLVTVSSRTGGGGSKLEVQLLESGGGLVQPGGSLRLSCAASGFTFSSYAMIWVRQAPGKGLEWVSGISESGGSTYYADSVKGRFTISRDNSKNTLYLQMNSLRAEDTAVYFCVKDLDDILTGYYKDYWGQGTLVTVSSASEPKSSDKTHTCPPCPAPEAAGGPSVFLFPPKPKDTLMISRTPEVTCVVVDVSHEDPEVKFNWYVDGVEVHNAKTKPREEQYNSTYRVVSVLTVLHQDWLNGKEYKCKVSNKALGAPIEKTISKAKGQPREPQVCTLPPSREEMTKNQVSLSCAVKGFYPSDIAVEWESNGQPENNYKTTPPVLDSDGSFFLVSKLTVDKSRWQQGNVFSCSVMHEALHNHYTQKSLSLSPGK |  | 32800
3 | PR003880 (bispecific antibody, human IgG1, lambda, L234A L235A, BCMAxCD3, Fab-Fc-VH (structure 11); CD3 Fab of PR003886, BCMA VH of PR004560; IgG1 knob/hole, LALA) light: QAVVTQEPSLTVSPGGTVTLTCRSSTGAVTTSNYANWVQQKPGQAPRGLIGGTNKRAPWTPARFSGSLLGDKAALTLLGAQPEDEAEYFCALWYSNLWVFGGGTKLTVLGQPKAAPSVTLFPPSSEELQANKATLVCLISDFYPGAVTVAWKADSSPVKAGVETTTPSKQSNNKYAASSYLSLTPEQWKSHRSYSCQVTHEGSTVEKTVAPTECS heavy: not shown EVQLVETGGGLIQPGGSLRLSCAASGFTVSDAYMTWVRQAPGKGLEWVSVIFSGGNTYVSDSVKGRFTISRDNAKNTLYLQMNSLRAEDTALYYCARRNYDQTRGTDVFDIWGQGTMVTVSSASEPKSSDKTHTCPPCPAPEAAGGPSVFLFPPKPKDTLMISRTPEVTCVVVDVSHEDPEVKFNWYVDGVEVHNAKTKPREEQYNSTYRVVSVLTVLHQDWLNGKEYKCKVSNKALPAPIEKTISKAKGQPREPQVCTLPPSREEMTKNQVSLSCAVKGFYPSDIAVEWESNGQPENNYKTTPPVLDSDGSFFLVSKLTVDKSRWQQGNVFSCSVMHEALHNHYTQKSLSLSPGK | 5.6 nM | 8660
4 | PR003879 (bispecific antibody, human IgG1, lambda, L234A L235A, BCMAxCD3, Fab-Fc-VH (structure 11); CD3 Fab of PR003886, BCMA VH of PR004574; IgG1 knob/hole, LALA) light: QAVVTQEPSLTVSPGGTVTLTCRSSTGAVTTSNYANWVQQKPGQAPRGLIGGTNKRAPWTPARFSGSLLGDKAALTLLGAQPEDEAEYFCALWYSNLWVFGGGTKLTVLGQPKAAPSVTLFPPSSEELQANKATLVCLISDFYPGAVTVAWKADSSPVKAGVETTTPSKQSNNKYAASSYLSLTPEQWKSHRSYSCQVTHEGSTVEKTVAPTECS heavy: not shown EVQLVETGGGLIQPGGSLRLSCAASGFTVSDAYMTWVRQAPGKGLEWVSVIFSGGRTYYSDSVKGRFTISRDNAKNTLYLQMNSLRAEDTALYYCARRNYDQTRGTDVFDIWGQGTMVTVSSASEPKSSDKTHTCPPCPAPEAAGGPSVFLFPPKPKDTLMISRTPEVTCVVVDVSHEDPEVKFNWYVDGVEVHNAKTKPREEQYNSTYRVVSVLTVLHQDWLNGKEYKCKVSNKALPAPIEKTISKAKGQPREPQVCTLPPSREEMTKNQVSLSCAVKGFYPSDIAVEWESNGQPENNYKTTPPVLDSDGSFFLVSKLTVDKSRWQQGNVFSCSVMHEALHNHYTQKSLSLSPGK | 2.1 nM | 10800
5 | PR003882 (bispecific antibody, human IgG1, lambda, L234A L235A, BCMAxCD3, Fab-Fc-VH (structure 11); CD3 Fab of PR003886, BCMA VH of PR004562; IgG1 knob/hole, LALA) light: QAVVTQEPSLTVSPGGTVTLTCRSSTGAVTTSNYANWVQQKPGQAPRGLIGGTNKRAPWTPARFSGSLLGDKAALTLLGAQPEDEAEYFCALWYSNLWVFGGGTKLTVLGQPKAAPSVTLFPPSSEELQANKATLVCLISDFYPGAVTVAWKADSSPVKAGVETTTPSKQSNNKYAASSYLSLTPEQWKSHRSYSCQVTHEGSTVEKTVAPTECS heavy: not shown EVQLVETGGGLIQPGGSLRLSCAASGFTVSDSYMTWVRQAPGKGLEWVSVIFSGGKTYYSDSVKGRFTISRDNAKNTLYLQMNSLRAEDTALYYCARRNYDQTLGTDVFDIWGQGTMVTVSSASEPKSSDKTHTCPPCPAPEAAGGPSVFLFPPKPKDTLMISRTPEVTCVVVDVSHEDPEVKFNWYVDGVEVHNAKTKPREEQYNSTYRVVSVLTVLHQDWLNGKEYKCKVSNKALPAPIEKTISKAKGQPREPQVCTLPPSREEMTKNQVSLSCAVKGFYPSDIAVEWESNGQPENNYKTTPPVLDSDGSFFLVSKLTVDKSRWQQGNVFSCSVMHEALHNHYTQKSLSLSPGK | 1.8 nM | 11100
6 | PR002000 (bispecific antibody, IgG1, BCMAxCD3, scFv(VL-VH)-Fc-VH (structure 20); CD3 scFv of PR000510, BCMA VH of PR000943; IgG1 knob/hole, AAG) chain 1: QAVVTQEPSLTVSPGGTVTLTCRSSTGAVTTSNYANWVQQKPGQAPRGLIGGTNKRAPWTPARFSGSLLGDKAALTLLGAQPEDEAEYFCALWYSNLWVFGGGTKLTVLGGGQSGQGGSGGGGSEVQLVESGGGLVQPGGSLKLSCAASGFTFNTYAMNWVRQASGKGLEWVGRIRSKYNNYATYYADSVKDRFTISRDDSKSTLYLQMNSLKTEDTAVYYCVRHGNFGNSYVSWFAYWGQGTLVTVSSASEPKSSDKTHTCPPCPAPEAAGGPSVFLFPPKPKDTLMISRTPEVTCVVVDVSHEDPEVKFNWYVDGVEVHNAKTKPREEQYNSTYRVVSVLTVLHQDWLNGKEYKCKVSNKALGAPIEKTISKAKGQPREPQVYTLPPCREEMTKNQVSLWCLVKGFYPSDIAVEWESNGQPENNYKTTPPVLDSDGSFFLYSKLTVDKSRWQQGNVFSCSVMHEALHNHYTQKSLSLSPGK chain 2: EVQLVETGGGLIQPGGSLRLSCAASGFPVSSNYMSWVRQAPGKGLEWVSVIFSGGRTYYADSVKGRFTISRDNSKNTLYLQMNSLRAEDTAVYYCARRNWIDGRDAFDIWGQGTMVTVSSASEPKSSDKTHTCPPCPAPEAAGGPSVFLFPPKPKDTLMISRTPEVTCVVVDVSHEDPEVKFNWYVDGVEVHNAKTKPREEQYNSTYRVVSVLTVLHQDWLNGKEYKCKVSNKALGAPIEKTISKAKGQPREPQVCTLPPSREEMTKNQVSLSCAVKGFYPSDIAVEWESNGQPENNYKTTPPVLDSDGSFFLVSKLTVDKSRWQQGNVFSCSVMHEALHNHYTQKSLSLSPGK |  | 4640
7 | PR002002 (bispecific antibody, IgG1, BCMAxCD3, scFv(VL-VH)-Fc-VH (structure 20); CD3 scFv of PR000510, BCMA VH of PR001046; IgG1 knob/hole, AAG) chain 1: QAVVTQEPSLTVSPGGTVTLTCRSSTGAVTTSNYANWVQQKPGQAPRGLIGGTNKRAPWTPARFSGSLLGDKAALTLLGAQPEDEAEYFCALWYSNLWVFGGGTKLTVLGGGQSGQGGSGGGGSEVQLVESGGGLVQPGGSLKLSCAASGFTFNTYAMNWVRQASGKGLEWVGRIRSKYNNYATYYADSVKDRFTISRDDSKSTLYLQMNSLKTEDTAVYYCVRHGNFGNSYVSWFAYWGQGTLVTVSSASEPKSSDKTHTCPPCPAPEAAGGPSVFLFPPKPKDTLMISRTPEVTCVVVDVSHEDPEVKFNWYVDGVEVHNAKTKPREEQYNSTYRVVSVLTVLHQDWLNGKEYKCKVSNKALGAPIEKTISKAKGQPREPQVYTLPPCREEMTKNQVSLWCLVKGFYPSDIAVEWESNGQPENNYKTTPPVLDSDGSFFLYSKLTVDKSRWQQGNVFSCSVMHEALHNHYTQKSLSLSPGK chain 2: EVQLVETGGGLIQPGGSLRLSCAASGFTVSDNYMTWVRQAPGKGLEWVSVIFSGGNTYYADSVKGRFTISRDNAKNTLYLQMNSLRAEDTALYYCARRNYDDTRGTDVFDIWGQGTMVTVSSASEPKSSDKTHTCPPCPAPEAAGGPSVFLFPPKPKDTLMISRTPEVTCVVVDVSHEDPEVKFNWYVDGVEVHNAKTKPREEQYNSTYRVVSVLTVLHQDWLNGKEYKCKVSNKALGAPIEKTISKAKGQPREPQVCTLPPSREEMTKNQVSLSCAVKGFYPSDIAVEWESNGQPENNYKTTPPVLDSDGSFFLVSKLTVDKSRWQQGNVFSCSVMHEALHNHYTQKSLSLSPGK |  | 4500
